Experimental data reported in the supplement of paper PMC6757056.
± gives the standard deviation of the averaged measurements.

B1: library; a variant is named by its letters at N, in order (parent)
chain: GCUGUCACCGGUGCUUGGUACGUUAUAUUCAGCCGGUCUGAUGAGUCUNNNNNNAGACGAAACAGC

Assays:
(6R,S)-folinic acid [1] = variants of: B1; assay: normalized RNA/DNA level without ligand (relative to sTRSVctl = 100) (log10 (% of sTRSVctl)); HEK293T overexpressing SLC46A1; higher = less ribozyme self-cleavage, higher mRNA level; settings: without (6R,S)-folinic acid; ligand present: no
In short: (§1)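 HEK293T cells were transfected with library plasmids carrying ribozyme switches linked to an mCherry reporter, or an eGFP reporter in some ligand experiments, at 4 µg per well of a 6-well plate, with any ligand added 1 h beforehand. After 72 h, total RNA was extracted with EDTA, reverse-transcribed, amplified, barcoded and sequenced. RNA level was defined as RNA reads over DNA reads, normalized to a spiked-in non-cleaving sequence or to the top-ranked sequences. That value was multiplied by 100 and converted to log10, the top set was 25 sequences, and only sequences with ≥100 DNA reads were retained.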

(6R,S)-folinic acid [2] = variants of: B1; assay: normalized RNA/DNA level with ligand (relative to sTRSVctl = 100) (log10 (% of sTRSVctl)); HEK293T overexpressing SLC46A1; ligand concentration (+) RNA-Seq: 6 mM; higher = less ribozyme self-cleavage, higher mRNA level; settings: with (6R,S)-folinic acid; ligand present: yes
In short: as §1

Variant	normalized RNA/DNA level without ligand (log10) ((6R,S)-folinic acid [1])	normalized RNA/DNA level with ligand (log10) ((6R,S)-folinic acid [2])
GCUGUCACCGGUGCUUGGUACGUUAUAUUCAGCCGGUCUGAUGAGUCUAAGGCUAGACGAAACAGC [AAGGCU]	1.995 ± 0.011	2.019 ± 0.0048
GCUGUCACCGGUGCUUGGUACGUUAUAUUCAGCCGGUCUGAUGAGUCUAAGGCAAGACGAAACAGC [AAGGCA]	2.007 ± 0.0039	2.04 ± 0.022
GCUGUCACCGGUGCUUGGUACGUUAUAUUCAGCCGGUCUGAUGAGUCUAAGGCGAGACGAAACAGC [AAGGCG]	1.9326 ± 0.0006	2.03 ± 0.036
GCUGUCACCGGUGCUUGGUACGUUAUAUUCAGCCGGUCUGAUGAGUCUCAGGAAAGACGAAACAGC [CAGGAA]	1.928 ± 0.0064	1.99 ± 0.05
GCUGUCACCGGUGCUUGGUACGUUAUAUUCAGCCGGUCUGAUGAGUCUCAGGAGAGACGAAACAGC [CAGGAG]	1.92 ± 0.022	2.03 ± 0.03
GCUGUCACCGGUGCUUGGUACGUUAUAUUCAGCCGGUCUGAUGAGUCUCAGGAUAGACGAAACAGC [CAGGAU]	1.9357 ± 0.0006	1.97 ± 0.049
GCUGUCACCGGUGCUUGGUACGUUAUAUUCAGCCGGUCUGAUGAGUCUAAGGACAGACGAAACAGC [AAGGAC]	1.966 ± 0.0074	1.99 ± 0.037
GCUGUCACCGGUGCUUGGUACGUUAUAUUCAGCCGGUCUGAUGAGUCUCAGGCCAGACGAAACAGC [CAGGCC]	2.06 ± 0.046	2.02 ± 0.049
GCUGUCACCGGUGCUUGGUACGUUAUAUUCAGCCGGUCUGAUGAGUCUCAGGCGAGACGAAACAGC [CAGGCG]	2.02 ± 0.023	2.03 ± 0.029
GCUGUCACCGGUGCUUGGUACGUUAUAUUCAGCCGGUCUGAUGAGUCUCAGGCAAGACGAAACAGC [CAGGCA]	2.022 ± 0.019	2.009 ± 0.0063
GCUGUCACCGGUGCUUGGUACGUUAUAUUCAGCCGGUCUGAUGAGUCUGAGGCGAGACGAAACAGC [GAGGCG]	2.003 ± 0.014	2.05 ± 0.055
GCUGUCACCGGUGCUUGGUACGUUAUAUUCAGCCGGUCUGAUGAGUCUGAGGCUAGACGAAACAGC [GAGGCU]	2.073 ± 0.0028	2.04 ± 0.022
GCUGUCACCGGUGCUUGGUACGUUAUAUUCAGCCGGUCUGAUGAGUCUGAGGCCAGACGAAACAGC [GAGGCC]	2.041 ± 0.0098	2.044 ± 0.012
GCUGUCACCGGUGCUUGGUACGUUAUAUUCAGCCGGUCUGAUGAGUCUUAGGAGAGACGAAACAGC [UAGGAG]	1.63 ± 0.024	1.91 ± 0.033
GCUGUCACCGGUGCUUGGUACGUUAUAUUCAGCCGGUCUGAUGAGUCUGAGGAAAGACGAAACAGC [GAGGAA]	1.952 ± 0.0031	2.01 ± 0.03
GCUGUCACCGGUGCUUGGUACGUUAUAUUCAGCCGGUCUGAUGAGUCUGAGGACAGACGAAACAGC [GAGGAC]	1.947 ± 0.013	2.014 ± 0.016
GCUGUCACCGGUGCUUGGUACGUUAUAUUCAGCCGGUCUGAUGAGUCUGAGGAGAGACGAAACAGC [GAGGAG]	1.9 ± 0.013	2.031 ± 0.017
GCUGUCACCGGUGCUUGGUACGUUAUAUUCAGCCGGUCUGAUGAGUCUUAGGCCAGACGAAACAGC [UAGGCC]	2.047 ± 0.004	2.04 ± 0.044
GCUGUCACCGGUGCUUGGUACGUUAUAUUCAGCCGGUCUGAUGAGUCUUAGGCAAGACGAAACAGC [UAGGCA]	1.972 ± 0.00036	2.027 ± 0.02
GCUGUCACCGGUGCUUGGUACGUUAUAUUCAGCCGGUCUGAUGAGUCUUAGGCUAGACGAAACAGC [UAGGCU]	2.03 ± 0.024	2.05 ± 0.061
GCUGUCACCGGUGCUUGGUACGUUAUAUUCAGCCGGUCUGAUGAGUCUUAGGCGAGACGAAACAGC [UAGGCG]	1.762 ± 0.0037	1.97 ± 0.032
